According to patent US20230242601A1, “PEPTIDE USED TO PREVENT OR TREAT SYNUCLEINOPATHY” (TOHOKU UNIVERSITY, priority 2020, published 2023):

Target: FABP3 fused with a His-tag at the N-terminus
Experiment: QCM, peptide added to immobilised FABP3

FABP3 fused with a His-tag at the N-terminus, sequence (P05413 2-133): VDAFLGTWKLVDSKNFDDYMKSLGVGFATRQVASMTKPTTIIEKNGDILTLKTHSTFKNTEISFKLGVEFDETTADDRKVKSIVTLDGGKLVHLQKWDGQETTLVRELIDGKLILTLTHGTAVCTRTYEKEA

B1: SynP130-140 peptide (peptide)
peptide: EEGYQDYEPEA
B1 showed a Kd of 0.2 nM.

B2: SynP130-140 Y133F/Y136F (peptide)
peptide: EEGFQDFEPEA
In the case of B2, the fold stronger binding affinity against the natural SynP130-140 is reported as 2 fold.

B3: SynP130-140 Y133F (peptide)
peptide: EEGFQDYEPEA
For B3, the Kd was 0.1 nM and the fold stronger binding affinity against the natural SynP130-140 was 2 fold.
